Laboratory results published in patent US20020115843A1.

Experiments:
Test in all cases: cell-based or functional assay
[1] = biological target: myc-His tagged DPRP-1 (expressed from pcDNA-MycHis-DPRP1) (human) (UniProt Q6V1X1)
[2] = biological target: dipeptidyl peptidase IV (DPPIV) (UniProt P27487)
[3] = biological target: myc-His tagged DPRP-2 (expressed from pcDNA-MycHis-DPRP2) (human) (UniProt Q86TI2)
Chain of myc-His tagged DPRP-2 (expressed from pcDNA-MycHis-DPRP2) (human) (Q86TI2 whole entry): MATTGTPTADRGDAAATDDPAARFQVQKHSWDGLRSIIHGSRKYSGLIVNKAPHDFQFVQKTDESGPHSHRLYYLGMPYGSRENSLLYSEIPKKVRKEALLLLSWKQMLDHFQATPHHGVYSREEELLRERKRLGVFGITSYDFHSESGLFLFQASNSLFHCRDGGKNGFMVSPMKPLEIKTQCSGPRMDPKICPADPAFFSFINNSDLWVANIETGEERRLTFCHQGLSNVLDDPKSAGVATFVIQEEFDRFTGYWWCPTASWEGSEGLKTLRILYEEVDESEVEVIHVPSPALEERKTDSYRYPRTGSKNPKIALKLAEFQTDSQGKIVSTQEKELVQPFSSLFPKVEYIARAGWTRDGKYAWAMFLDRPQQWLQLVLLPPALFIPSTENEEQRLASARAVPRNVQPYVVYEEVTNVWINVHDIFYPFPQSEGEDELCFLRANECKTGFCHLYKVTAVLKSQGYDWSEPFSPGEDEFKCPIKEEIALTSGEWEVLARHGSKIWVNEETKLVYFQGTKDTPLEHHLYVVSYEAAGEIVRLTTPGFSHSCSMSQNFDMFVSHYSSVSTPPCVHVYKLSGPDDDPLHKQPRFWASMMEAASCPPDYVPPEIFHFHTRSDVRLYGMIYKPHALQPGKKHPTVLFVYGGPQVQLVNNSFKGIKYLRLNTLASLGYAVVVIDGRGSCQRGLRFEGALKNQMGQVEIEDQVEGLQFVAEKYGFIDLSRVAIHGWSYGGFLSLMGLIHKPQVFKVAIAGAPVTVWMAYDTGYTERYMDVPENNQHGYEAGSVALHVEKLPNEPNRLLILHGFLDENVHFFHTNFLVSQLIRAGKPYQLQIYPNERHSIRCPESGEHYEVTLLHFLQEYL

Chain of myc-His tagged DPRP-1 (expressed from pcDNA-MycHis-DPRP1) (human) (Q6V1X1 17-898): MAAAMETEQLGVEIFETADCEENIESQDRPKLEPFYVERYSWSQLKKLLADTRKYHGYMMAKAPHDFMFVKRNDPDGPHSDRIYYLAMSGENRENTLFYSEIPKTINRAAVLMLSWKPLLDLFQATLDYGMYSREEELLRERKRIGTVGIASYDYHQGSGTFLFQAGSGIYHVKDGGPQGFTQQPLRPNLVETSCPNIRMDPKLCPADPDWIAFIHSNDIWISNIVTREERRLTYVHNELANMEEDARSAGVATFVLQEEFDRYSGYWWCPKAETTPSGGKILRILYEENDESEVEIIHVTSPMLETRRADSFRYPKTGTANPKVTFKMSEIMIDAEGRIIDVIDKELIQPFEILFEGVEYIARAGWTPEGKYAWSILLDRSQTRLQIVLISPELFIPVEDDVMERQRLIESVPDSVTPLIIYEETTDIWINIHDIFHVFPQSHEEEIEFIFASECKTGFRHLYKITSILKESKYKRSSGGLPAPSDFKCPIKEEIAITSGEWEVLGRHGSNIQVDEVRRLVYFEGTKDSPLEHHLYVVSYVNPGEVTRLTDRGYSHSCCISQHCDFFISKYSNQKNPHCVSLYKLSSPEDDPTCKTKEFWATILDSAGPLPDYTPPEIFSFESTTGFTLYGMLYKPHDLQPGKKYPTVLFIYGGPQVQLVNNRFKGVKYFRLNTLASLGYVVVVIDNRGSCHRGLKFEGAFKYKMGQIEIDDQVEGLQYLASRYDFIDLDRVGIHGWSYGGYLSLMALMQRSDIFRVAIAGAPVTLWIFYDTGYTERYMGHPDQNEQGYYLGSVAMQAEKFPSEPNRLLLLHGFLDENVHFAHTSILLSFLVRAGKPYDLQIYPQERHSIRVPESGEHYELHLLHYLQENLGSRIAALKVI
Chain of dipeptidyl peptidase IV (DPPIV) (P27487 39-766 limits assumed): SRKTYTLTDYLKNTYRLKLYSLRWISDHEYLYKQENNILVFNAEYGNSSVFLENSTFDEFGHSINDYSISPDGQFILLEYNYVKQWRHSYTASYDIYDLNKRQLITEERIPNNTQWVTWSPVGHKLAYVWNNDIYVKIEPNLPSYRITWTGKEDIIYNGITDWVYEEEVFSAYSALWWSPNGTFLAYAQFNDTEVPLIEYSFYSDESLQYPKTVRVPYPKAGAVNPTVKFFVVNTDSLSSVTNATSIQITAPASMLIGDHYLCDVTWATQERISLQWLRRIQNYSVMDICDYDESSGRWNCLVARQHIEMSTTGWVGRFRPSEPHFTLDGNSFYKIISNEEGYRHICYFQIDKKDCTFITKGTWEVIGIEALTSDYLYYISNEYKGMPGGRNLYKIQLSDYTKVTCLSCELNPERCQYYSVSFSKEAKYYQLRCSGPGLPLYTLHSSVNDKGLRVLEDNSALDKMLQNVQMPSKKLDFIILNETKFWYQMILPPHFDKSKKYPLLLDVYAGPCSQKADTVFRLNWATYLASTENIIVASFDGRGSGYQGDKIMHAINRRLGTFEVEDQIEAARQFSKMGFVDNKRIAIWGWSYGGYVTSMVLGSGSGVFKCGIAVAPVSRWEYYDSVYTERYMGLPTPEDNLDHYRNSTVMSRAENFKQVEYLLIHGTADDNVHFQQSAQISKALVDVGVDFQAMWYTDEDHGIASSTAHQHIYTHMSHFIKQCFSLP

Question: How did the Residual activity (% of control), Ala-Pro-AMC cleavage, inhibitor at 50 µg/ml [1] turn out when Leupeptin (peptide) was run?
Answer: The Residual activity (% of control), Ala-Pro-AMC cleavage, inhibitor at 50 µg/ml was 91.1 % of control.

Question: And the Residual activity (% of control), Ala-Pro-AMC cleavage, inhibitor at 50 µg/ml [2]?
Answer: The Residual activity (% of control), Ala-Pro-AMC cleavage, inhibitor at 50 µg/ml was 90.7 % of control.

Question: What about the Residual activity (% of control), Ala-Pro-AMC cleavage, inhibitor at 50 µg/ml [3] of the same substance?
Answer: Its Residual activity (% of control), Ala-Pro-AMC cleavage, inhibitor at 50 µg/ml is 90.4 % of control.

Question: For Pepstatin (peptide), which Residual activity (% of control), Ala-Pro-AMC cleavage, inhibitor at 2 µg/ml [1] is on record?
Answer: Its Residual activity (% of control), Ala-Pro-AMC cleavage, inhibitor at 2 µg/ml is 97.3 % of control.

Question: What about the Residual activity (% of control), Ala-Pro-AMC cleavage, inhibitor at 2 µg/ml [2] of the same substance?
Answer: The Residual activity (% of control), Ala-Pro-AMC cleavage, inhibitor at 2 µg/ml was 93.5 % of control.

Question: And the Residual activity (% of control), Ala-Pro-AMC cleavage, inhibitor at 2 µg/ml [3]?
Answer: Its Residual activity (% of control), Ala-Pro-AMC cleavage, inhibitor at 2 µg/ml is 95 % of control.
